Measurements: publication PMC3215742

Key:
[1] = biological target: Renilla luciferase (RLuc)-fused tetherin (human) (UniProt Q10589)
[2] = biological target: Renilla luciferase (RLuc)-fused tetherin (human) (UniProt Q10589); experiment: FRET or BRET; BRET in HEK293T cells cotransfected with RLuc-tetherin and Vpu-eYFP (or eYFP alone); media with 10 µM BIT225 or DMSO from 6 h after transfection; cells collected 48 h post-transfection, washed in PBS; coelenterazine H 5 µM; Synergy 4 plate reader

Sequence of UniProt Q10589 (Q10589 1-161): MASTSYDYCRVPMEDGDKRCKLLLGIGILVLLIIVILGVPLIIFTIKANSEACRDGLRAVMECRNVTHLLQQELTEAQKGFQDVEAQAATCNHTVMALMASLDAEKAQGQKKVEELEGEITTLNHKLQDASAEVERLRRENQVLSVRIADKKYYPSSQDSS

Question: Which results are given for “enhanced yellow fluorescent protein (eYFP)-fused Vpu (from UniProt P05919 1-82) (natural protein)”?
Answer: tetherin cell surface expression (flow cytometry) in wt infected CEM-SS cells compared to uninfected populations; not affected by 10 µM BIT225 [1]: 75%; tetherin cell surface expression (flow cytometry) in wt infected SupT1-tetherin^pos cells compared to uninfected controls; not affected by 10 µM BIT225 [1]: 70%; BRET signal (DMSO, without BIT225) [2]: 52; BRET signal (with 10 µM BIT225) [2]: 51
